Molecular target: high affinity IL-2 receptor (IL-2R) consisting of CD122, CD132 and CD25, on CTLL-2 cells (mouse) (UniProt P01590)
Assay: cell-based or functional assay

Sequence of high affinity IL-2 receptor (IL-2R) consisting of CD122, CD132 and CD25, on CTLL-2 cells (mouse) (P01590 22-268, chain 1 of 3): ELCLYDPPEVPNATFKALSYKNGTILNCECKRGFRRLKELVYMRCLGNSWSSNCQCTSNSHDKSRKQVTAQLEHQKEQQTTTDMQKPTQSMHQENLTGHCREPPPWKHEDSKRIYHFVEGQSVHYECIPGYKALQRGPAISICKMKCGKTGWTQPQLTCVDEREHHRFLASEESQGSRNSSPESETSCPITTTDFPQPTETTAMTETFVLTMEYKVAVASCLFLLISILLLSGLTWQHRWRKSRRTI
Sequence of high affinity IL-2 receptor (IL-2R) consisting of CD122, CD132 and CD25, on CTLL-2 cells (mouse) (P16297 27-539, chain 2 of 3, further chain): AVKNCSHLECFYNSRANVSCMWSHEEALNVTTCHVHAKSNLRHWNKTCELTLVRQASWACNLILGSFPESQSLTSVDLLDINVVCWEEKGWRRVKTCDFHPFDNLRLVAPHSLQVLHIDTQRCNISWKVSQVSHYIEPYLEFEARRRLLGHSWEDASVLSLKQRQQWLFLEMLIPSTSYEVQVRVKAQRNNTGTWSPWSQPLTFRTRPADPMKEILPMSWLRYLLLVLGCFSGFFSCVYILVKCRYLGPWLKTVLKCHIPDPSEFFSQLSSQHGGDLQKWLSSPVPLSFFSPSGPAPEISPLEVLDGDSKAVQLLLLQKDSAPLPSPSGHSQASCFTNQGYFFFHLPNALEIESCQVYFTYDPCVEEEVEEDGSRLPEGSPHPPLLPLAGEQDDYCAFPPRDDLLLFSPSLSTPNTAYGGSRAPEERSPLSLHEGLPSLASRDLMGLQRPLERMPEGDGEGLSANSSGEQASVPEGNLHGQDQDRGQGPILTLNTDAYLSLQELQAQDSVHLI
Sequence of high affinity IL-2 receptor (IL-2R) consisting of CD122, CD132 and CD25, on CTLL-2 cells (mouse) (P34902 23-369, chain 3 of 3, further chain): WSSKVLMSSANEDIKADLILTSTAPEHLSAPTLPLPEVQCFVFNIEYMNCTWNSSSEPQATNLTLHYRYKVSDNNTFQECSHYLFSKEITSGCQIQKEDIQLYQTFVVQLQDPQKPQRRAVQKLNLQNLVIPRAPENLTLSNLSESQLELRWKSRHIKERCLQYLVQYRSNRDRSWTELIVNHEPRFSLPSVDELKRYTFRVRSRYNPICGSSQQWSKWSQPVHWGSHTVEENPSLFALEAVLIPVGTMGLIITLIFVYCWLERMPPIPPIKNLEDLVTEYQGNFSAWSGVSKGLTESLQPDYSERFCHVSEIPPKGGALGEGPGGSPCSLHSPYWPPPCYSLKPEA

**Q.** How did the CTLL-2 cell proliferation, EC50 turn out when “rhIL-2 (from UniProt P60568 21-153) (ligand)” was run?
**A.** The CTLL-2 cell proliferation, EC50 was 6.4 pM.

Source: patent publication US20230365642A1
